Experiment [1] deals with B42-Mch5b-FDH (residues 3-177) (UniProt Q14790). The experiment in a line: yeast two-hybrid liquid b-gal assay; four independent experiments.
Experiment [2] deals with B42-Mch5b-FDH-A (residues 3-80) (UniProt Q14790). The description is as above.
Experiment [3] deals with B42-Mch5b-FDH-B (residues 102-177) (UniProt Q14790). The experiment is described as above.
The target in another experiment is B42. The experiment in a line: yeast two-hybrid liquid b-gal assay; activation hybrid alone (background control); four independent experiments.

Sequence of B42-Mch5b-FDH-A (residues 3-80) (Q14790 3-80, form in doubt): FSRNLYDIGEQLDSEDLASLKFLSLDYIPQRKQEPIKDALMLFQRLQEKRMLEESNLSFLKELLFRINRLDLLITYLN
Sequence of B42-Mch5b-FDH-B (residues 102-177) (Q14790 102-177, form in doubt): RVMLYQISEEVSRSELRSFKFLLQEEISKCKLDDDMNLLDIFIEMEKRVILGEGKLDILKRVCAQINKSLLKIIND
Sequence of B42-Mch5b-FDH (residues 3-177) (Q14790 3-177, form in doubt): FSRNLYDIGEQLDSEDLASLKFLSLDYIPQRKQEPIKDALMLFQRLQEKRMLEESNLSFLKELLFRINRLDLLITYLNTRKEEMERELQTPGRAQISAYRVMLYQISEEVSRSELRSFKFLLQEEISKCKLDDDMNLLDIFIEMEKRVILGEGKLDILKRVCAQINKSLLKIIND

As for “LexA-FLAME-1-FDH (residues 1-160) (from UniProt O15519 1-160)”, the Liquid assay b-gal activity in experiment [1] is 300 Miller units; in experiment [2], 52.7 Miller units; in experiment [3], 728 Miller units; with B42 it was 23.2 Miller units.
